Measured values as given in US20030092067A1.

Columns and labels:
[1] = biological target: Abz-ACH-Ala-hLeu-Ser-Tyr(NO2)-Asp-NH2
[2] = biological target: Abz-Cha-Ala-hLeu-Ser-Tyr(NO2)-Asp-NH2
[3] = biological target: Abz-Bip-Ala-hLeu-Abu-Tyr(NO2)-Asp-NH2
[4] = biological target: Abz-Bip-Ala-hLeu-Thr-Tyr(NO2)-Asp-NH2
[5] = biological target: Abz-Val-Ala-Nle-Ser-Tyr(NO2)-Asp-NH2
[6] = biological target: Abz-Val-Ala-Thr-Ser-Tyr(NO2)-Asp-NH2
[7] = biological target: Abz-2Nal-Ala-hLeu-Ser-Tyr(NO2)-Asp-NH2
[8] = biological target: nBu-D.Ser-D.Nle-D.Ala-D.Val-p.Aba-NH2
[9] = biological target: Abz-Tic-Ala-hLeu-Ser-Tyr(NO2)-Asp-NH2
[10] = biological target: Abz-Val-Ala-DNle-Ser-Tyr(NO2)-Asp-NH2
[11] = biological target: Abz-Ala-Nle-Ser-Tyr(NO2)-Asp-NH2
[12] = biological target: Abz-Val-Ala-Cha-Ser-Tyr(NO2)-Asp-NH2
[13] = biological target: Abz-Phe-Val-Ala-Nle-Ser-Tyr(NO2)-Asp-NH2
[14] = biological target: Abz-Bip-Ala-hLeu-Lys-Tyr(NO2)-Asp-NH2
[15] = biological target: Abz-Lys-Ala-hLeu-Ser-Tyr(NO2)-Asp-NH2
[16] = biological target: Abz-Hyp-Val-Ala-Nle-Ser-Tyr(NO2)-Asp-NH2
[17] = biological target: H-Val-Ala-Nle-Ser-Tyr(NO2)-NH2
[18] = biological target: Abz-Bip-Ala-hLeu-Cha-Tyr(NO2)-Asp-NH2
[19] = biological target: Abz-Lys-Val-Ala-Nle-Ser-Tyr(NO2)-Asp-NH2
[20] = biological target: Abz-Bip-Ala-hLeu-Hyp-Tyr(NO2)-Asp-NH2
[21] = biological target: Abz-Glu-Val-Ala-Nle-Ser-Tyr(NO2)-Asp-NH2
[22] = biological target: Abz-Val-DLys-hLeu-Ser-Tyr(NO2)-Asp-NH2
[23] = biological target: Abz-Val-Ala-Nle-Ser-eAHA-Asp-NH2
[24] = biological target: Abz-Val-Ala-Gln-Ser-Tyr(NO2)-Asp-NH2
[25] = biological target: Abz-DVal-Ala-hLeu-Ser-Tyr(NO2)-Asp-NH2
[26] = biological target: Abz-Val-Ala-His-Ser-Tyr(NO2)-Aso-NH2
[27] = biological target: Abz-Val-Ala-Hyp-Ser-Tyr(NO2)-Asp-NH2
[28] = biological target: Bz-Val-Ala-Statine-Ser-eAha-NH2
[29] = biological target: Abz-Val-Ala-Nle-Ser-Tyr-Asp-NH2
[30] = biological target: Abz-Val-ACP-hLeu-Ser-Tyr(NO2)-Asp-NH2
[31] = biological target: Abz-Val-DGln-hLeu-Ser-Tyr(NO2)-Asp-NH2
[32] = biological target: Ac-Val-Ala-Nie-Ser-Tyr(NO2)-Asp-NH2
[33] = biological target: Abz-Val-Ala-Lys-Ser-Tyr(NO2)-Asp-NH2
[34] = biological target: Abz-Val-Ala-(NMe)Nle-Ser-Tyr(NO2)-Asp-NH2
[35] = biological target: Ac-Val-Ala-Nle-Ser-Tyr(NO2)-NH2
[36] = biological target: Abz-Bip-Ala-hLeu-Ser-Tyr(NO2)-Asp-NH2
[37] = biological target: Abz-Val-Cha-hLeu-Ser-Tyr(NO2)-Asp-NH2
[38] = biological target: Abz-Val-Ala-3pyr-Ser-Tyr(NO2)-Asp-NH2
[39] = biological target: Abz-Met(O)-Ala-hLeu-Ser-Tyr(NO2)-Asp-NH2
[40] = biological target: Abz-Bip-Ala-hLeu-Leu-Tyr(NO2)-Asp-NH2
[41] = biological target: Abz-Val-Ala-Nle-Ser-Phe-Asp-NH2
[42] = biological target: Abz-Nle-Ser-Tyr(NO2)-Asp-NH2
[43] = biological target: Abz-Val-Aib-Nle-Ser-Tyr(NO2)-Asp-NH2
[44] = biological target: Abz-3.Pyr-Val-Ala-Nle-Ser-Tyr(NO2)-Asp-NH2
[45] = biological target: Abz-Val-(NMe)Ala-Nle-Ser-Tyr(NO2)-ASP-NH2
[46] = biological target: Abz-Leu-Ala-hLeu-Ser-Tyr(NO2)-Asp-NH2
[47] = biological target: Abz-Val-Met(O)-hLeu-Ser-Tyr(NO2)-Asp-NH2
[48] = biological target: Abz-Gln-Ala-hLeu-Ser-Tyr(NO2)-Asp-NH2
[49] = biological target: Abz-2.Naph-Val-Ala-Nle-Ser-Tyr(NO2)-Asp-NH2
[50] = biological target: Abz-Val-Ala-ACP-Ser-Tyr(NO2)-Asp-NH2
[51] = biological target: Bz-Val-Ala-Nle-Ser-Tyr(NO2)-NH2
[52] = biological target: Abz-Cmpi-Nle-Ser-Tyr(NO2)-ASP-NH2
[53] = biological target: Abz-Val-Ala-Nle-Ser-Tyr(NO2)-NH2
[54] = biological target: Abz-Val-2Nal-hLeu-Ser-Tyr(NO2)-Asp-NH2
[55] = biological target: Bz-Val-Ala-Nle-Ser-Tyr(NO2)-NH2 (second printing, row r51)
[56] = biological target: Abz-Val-Tic-hLeu-Ser-Tyr(NO2)-Asp-NH2
[57] = biological target: Abz-Val-Ala-ACH-Ser-Tyr(NO2)-Asp-NH2
[58] = biological target: Abz-p.Aba-Nle-Ser-Tyr(NO2)-Asp-NH2
[59] = biological target: Abz-Bip-Val-Ala-Nle-Ser-Tyr(NO2)-Asp-NH2
[60] = biological target: Abz-Val-Lys-hLeu-Ser-Tyr(NO2)-Asp-NH2
[61] = biological target: Piv-Val-Ala-Nle-Ser-Tyr(NO2)-NH2
[62] = biological target: Abz-Val-3pyr-hLeu-Ser-Tyr(NO2)-Asp-NH2
[63] = biological target: Abz-Bip-Ala-hLeu-3pyr-Tyr(NO2)-Asp-NH2
[64] = biological target: Abz-Deg-Ala-Nle-Ser-Tyr(NO2)-Asp-NH2
[65] = biological target: Chex-Val-Ala-Nle-Ser-Tyr(NO2)-NH2
[66] = biological target: Bz(2-carboxy)-Val-Ala-Nle-Ser-Tyr(NO2)-NH2
[67] = biological target: Abz-Bip-Ala-hLeu-Bu^tGly-Tyr(NO2)-Asp-NH2
[68] = biological target: Abz-Val-Ala-Nle-Ser-Lys-Asp-NH2
[69] = biological target: H-Ala-Nle-Ser-Tyr(NO2)-ASP-NH2
[70] = biological target: Abz-Bip-Ala-hLeu-Tyr-Tyr(NO2)-Asp-NH2
[71] = biological target: Abz-Val-ACH-hLeu-Ser-Tyr(NO2)-Asp-NH2
[72] = biological target: Abz-Bip-Ala-hLeu-Met(O)-Tyr(NO2)-Asp-NH2
[73] = biological target: H-Ala-Nle-Ser-Tyr(NO2)-Asp-NR2
[74] = biological target: Abz-Bip-Ala-hLeu-Asp-Tyr(NO2)-Asp-NH2
[75] = biological target: Abz-Val-Ala-Nle-Ser-Ala-Asp-NH2
[76] = biological target: Abz-3pyr-Ala-hLeu-Ser-Tyr(NO2)-Asp-NH2
[77] = biological target: H-Val-Ala-Nle-Ser-TyrNO2-ASp-NH2
[78] = biological target: Abz-Val-Ala-hLeu-Ser-Tyr(NO2)-Asp-NH2
[79] = biological target: Abz-Val-Ala-Aib-Ser-Tyr(NO2)-Asp-NH2
[80] = biological target: n-Bu-Val-Ala-Nle-Ser-Tyr(NO2)-NH2
[81] = biological target: Abz-Val-DAla-hLeu-Ser-Tyr(NO2)-Asp-NH2
[82] = biological target: Abz-1.Naph-Val-Ala-Nle-Ser-Tyr(NO2)-Asp-NH2

B1: Der pI (protein)
chain: TNACSINGNAPAEIDLRQMRTVTPIRMQGGCGSCWAFSGVAATESAYLAYRNQSLDLAEQELVDCASQHGCHGDTIPRGIEYIQHNGVVQESYYRYVAREQSCRRPNAQRFGISNYCQIYPPNVNKIREALAQTHSAIAVIIGIKDLDAFRHYDGRTIIQRDNGYQPNYHAVNIVGYSNAQGVDYWIVRNSWDTNWGDNGYGYFAANIDLMMIEEYPYVVIL
> 10 µM: Measured Km [76]
NM: Measured Km (µM) [11] | Measured Km (µM) [13] | Measured Km (µM) [23] | Measured Km (µM) [29] | Measured Km (µM) [41] | Measured Km (µM) [44] | Measured Km (µM) [49] | Measured Km (µM) [53] | Measured Km (µM) (Abz-Val-Ala-Nle-Ser-NH2) | Measured Km (µM) [68] | Measured Km (µM) [75]
20 µM: Measured Km [21] | Measured Km [39]
10 µM: Measured Km [38] | Measured Km [59]
2 µM: Measured Km [14]
12 µM: Measured Km [5] | Measured Km [48]
NS: Measured Km (µM) [1] | Measured Km (µM) [8] | Measured Km (µM) [9] | Measured Km (µM) [10] | Measured Km (µM) [16] | Measured Km (µM) [17] | Measured Km (µM) [22] | Measured Km (µM) [25] | Measured Km (µM) [27] | Measured Km (µM) [28] | Measured Km (µM) [30] | Measured Km (µM) [31] | Measured Km (µM) [32] | Measured Km (µM) [34] | Measured Km (µM) [35] | Measured Km (µM) [37] | Measured Km (µM) [42] | Measured Km (µM) [43] | Measured Km (µM) [45] | Measured Km (µM) [50] | Measured Km (µM) [52] | Measured Km (µM) [54] | Measured Km (µM) [56] | Measured Km (µM) [57] | Measured Km (µM) [58] | Measured Km (µM) [62] | Measured Km (µM) [64] | Measured Km (µM) [69] | Measured Km (µM) [71] | Measured Km (µM) [73] | Measured Km (µM) [77] | Measured Km (µM) [79] | Measured Km (µM) [81]
35 µM: Measured Km [47] | Measured Km [60]
NM^a: Measured Km (µM) [51] | Measured Km (µM) [55] | Measured Km (µM) [61] | Measured Km (µM) [65] | Measured Km (µM) [66] | Measured Km (µM) [80]
18 µM: Measured Km [46]
17 µM: Measured Km [82]
14 µM: Measured Km [33]
5 µM: Measured Km [12] | Measured Km [72] | Measured Km [74]
9 µM: Measured Km [2]
3 µM: Measured Km [70]
Bz>n-But>Piv>Bz(2-carboxy)>Abz: cleavage rate (rank order) [51] | cleavage rate (rank order) [53] | cleavage rate (rank order) [61] | cleavage rate (rank order) [66] | cleavage rate (rank order) [80]
4 µM: Measured Km [20] | Measured Km [63] | Measured Km [67] | Measured Km [78]
> 15 µM: Measured Km [15]
3.7 µM: Measured Km [40]
35000 M⁻¹ s⁻¹: kcat/Km [5]
1.7 µM: Measured Km [3]
2.5 µM: Measured Km [4] | Measured Km [18] | Measured Km [36]
6 µM: Measured Km [6] | Measured Km [24]
> 20 µM: Measured Km [26]
15 µM: Measured Km [7] | Measured Km [19]
